Source: article doi:10.1101/2020.08.16.253419v1

Test system: Nc1nc2c(ncn2[C@@H]2O[C@H](COP(=O)(O)OP(=O)(O)OP(=O)(O)O)[C@@H](O)[C@H]2O)c(=O)[nH]1
Assay: malachite green
Format: biochemical, Streptococcus thermophilus
Settings: 20 mM Tris pH 8.0, 200 mM KCl, 5 mM MgCl2, 37 °C

**Q.** With “StNFeoB (Streptococcus thermophilus LMG 18311; E66Q/E67Q)” as the substance, how does the Km read?
**A.** Its Km is 187 ± 20 µM.
